Assay results from patent publication US20230287095A1 (published 2023).
Substitutions are numbered along the chain they refer to.

T1: human pro-EMAPII (human, UniProt Q12904 1-312)
T1 chain: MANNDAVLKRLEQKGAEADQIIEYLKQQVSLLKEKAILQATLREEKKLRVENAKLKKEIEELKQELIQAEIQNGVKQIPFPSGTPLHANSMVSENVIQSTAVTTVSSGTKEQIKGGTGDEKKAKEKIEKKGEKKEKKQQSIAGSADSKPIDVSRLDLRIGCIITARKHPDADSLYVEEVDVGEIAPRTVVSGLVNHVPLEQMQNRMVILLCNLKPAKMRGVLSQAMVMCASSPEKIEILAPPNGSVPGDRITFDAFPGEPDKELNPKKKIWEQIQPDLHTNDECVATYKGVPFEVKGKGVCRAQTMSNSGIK

B1: Humanized HC1 + LC4 (antibody)
heavy: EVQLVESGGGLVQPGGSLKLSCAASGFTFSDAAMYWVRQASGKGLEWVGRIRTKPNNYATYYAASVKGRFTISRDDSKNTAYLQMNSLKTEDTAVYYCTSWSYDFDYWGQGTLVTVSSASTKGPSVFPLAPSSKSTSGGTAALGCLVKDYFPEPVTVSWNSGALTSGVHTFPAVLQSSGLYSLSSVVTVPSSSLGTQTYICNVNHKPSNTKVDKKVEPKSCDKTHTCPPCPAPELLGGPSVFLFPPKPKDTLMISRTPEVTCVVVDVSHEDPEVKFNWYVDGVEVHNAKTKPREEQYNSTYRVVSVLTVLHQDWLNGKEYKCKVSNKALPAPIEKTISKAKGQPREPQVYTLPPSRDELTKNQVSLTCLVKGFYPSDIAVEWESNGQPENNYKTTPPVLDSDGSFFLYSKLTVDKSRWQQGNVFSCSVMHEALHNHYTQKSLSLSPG
light: DIQMTQSPLSLPVTPGEPASISCRSSKSLLHSSGKTYLNWYLQKPGQSPQLLIYWMSTRASGVPDRFSGSGSGTDFTLKISRVEAEDVGVYYCQQFLEYPLTFGGGTKVEIKRTVAAPSVFIFPPSDEQLKSGTASVVCLLNNFYPREAKVQWKVDNALQSGNSQESVTEQDSKDSTYSLSSTLTLSKADYEKHKVYACEVTHQGLSSPVTKSFNRGEC
B2: Humanized HC2 + LC4 (antibody)
heavy: not shown
light: B1 light
B3: Humanized HC4 + LC4 (antibody)
heavy: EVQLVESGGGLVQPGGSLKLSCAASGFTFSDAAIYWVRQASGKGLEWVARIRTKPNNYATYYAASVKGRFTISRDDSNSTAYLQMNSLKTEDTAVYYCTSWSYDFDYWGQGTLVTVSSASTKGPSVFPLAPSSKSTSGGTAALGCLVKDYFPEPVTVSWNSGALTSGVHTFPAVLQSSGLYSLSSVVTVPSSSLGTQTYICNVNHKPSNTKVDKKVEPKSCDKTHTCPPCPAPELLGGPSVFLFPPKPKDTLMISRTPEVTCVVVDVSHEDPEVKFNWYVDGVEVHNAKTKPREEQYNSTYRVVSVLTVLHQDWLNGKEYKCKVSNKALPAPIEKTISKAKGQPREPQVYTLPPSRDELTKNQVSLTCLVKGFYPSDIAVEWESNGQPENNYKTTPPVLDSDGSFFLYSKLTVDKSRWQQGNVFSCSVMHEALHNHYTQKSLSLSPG
light: B1 light
B4: Humanized HC3 + LC4 (antibody)
heavy: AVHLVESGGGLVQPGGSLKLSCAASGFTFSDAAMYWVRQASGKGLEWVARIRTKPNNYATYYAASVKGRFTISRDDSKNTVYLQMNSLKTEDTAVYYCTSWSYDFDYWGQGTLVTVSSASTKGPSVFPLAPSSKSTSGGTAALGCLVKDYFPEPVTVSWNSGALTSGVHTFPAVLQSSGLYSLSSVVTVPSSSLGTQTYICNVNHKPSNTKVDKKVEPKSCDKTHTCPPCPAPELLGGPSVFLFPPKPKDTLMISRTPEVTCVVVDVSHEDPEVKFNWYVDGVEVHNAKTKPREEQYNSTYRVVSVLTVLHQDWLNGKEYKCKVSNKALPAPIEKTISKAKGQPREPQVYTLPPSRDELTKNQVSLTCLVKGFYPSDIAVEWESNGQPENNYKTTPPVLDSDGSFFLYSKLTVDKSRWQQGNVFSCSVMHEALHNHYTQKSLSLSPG
light: B1 light
B5: Humanized HC5 + LC4 (antibody)
heavy: not shown
light: B1 light
B6: Rat parental (antibody, V domains shown)
VH: AVHLVESGGGFVQPTESLKISCAASGFTFSDAAMYWVRQAPGKGLEWVARIRTKPNNYATYYADSVKGRFTISRDDSKSMVYLQMDNLKTEDTAMYYCTSWSYDFDYWGQGVMVTVSS
VL: DIVMTQGALPNPVPSGESASITCQSSKSLLHSSGKTYLNWYLQRPGQSPHLLIYWMSTRASGVSDRLSGSGSGTDFTLKISSVEAEDVGVYYCQQFLEYPLTFGSGTKLEIK
B7: Chimeric Parental (antibody, V domains shown)
VH: B6 VH
VL: B6 VL
B8: Humanized HC5 + LC2 (antibody)
heavy: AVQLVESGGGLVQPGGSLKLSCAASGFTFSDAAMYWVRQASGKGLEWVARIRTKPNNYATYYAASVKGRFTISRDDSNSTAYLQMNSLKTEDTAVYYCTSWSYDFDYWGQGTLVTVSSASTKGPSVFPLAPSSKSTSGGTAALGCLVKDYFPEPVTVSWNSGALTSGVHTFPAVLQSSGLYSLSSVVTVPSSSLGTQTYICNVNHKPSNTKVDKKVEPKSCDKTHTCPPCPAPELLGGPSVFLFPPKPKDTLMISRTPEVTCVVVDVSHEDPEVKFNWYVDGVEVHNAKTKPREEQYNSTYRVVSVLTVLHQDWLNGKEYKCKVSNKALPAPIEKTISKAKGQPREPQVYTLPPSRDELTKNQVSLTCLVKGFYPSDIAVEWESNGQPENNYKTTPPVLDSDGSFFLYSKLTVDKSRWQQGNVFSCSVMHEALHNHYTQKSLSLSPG
light: B1 light with Q3V, G105Q, V109L
B9: Humanized HC1 + LC2 (antibody)
heavy: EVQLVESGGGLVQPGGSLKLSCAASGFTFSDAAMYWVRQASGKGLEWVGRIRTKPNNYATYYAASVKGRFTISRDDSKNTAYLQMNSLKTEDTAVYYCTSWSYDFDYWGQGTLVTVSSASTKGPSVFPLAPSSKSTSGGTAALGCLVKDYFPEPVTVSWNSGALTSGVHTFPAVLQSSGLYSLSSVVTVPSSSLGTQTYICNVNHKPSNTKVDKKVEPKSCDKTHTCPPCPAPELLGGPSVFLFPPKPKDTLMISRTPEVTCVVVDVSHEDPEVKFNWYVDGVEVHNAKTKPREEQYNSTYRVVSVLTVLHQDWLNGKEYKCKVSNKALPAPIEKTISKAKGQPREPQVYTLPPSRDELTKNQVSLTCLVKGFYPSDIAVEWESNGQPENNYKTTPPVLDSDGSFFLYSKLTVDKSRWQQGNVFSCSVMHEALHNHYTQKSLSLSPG
light: B1 light with Q3V, G105Q, V109L
B10: Humanized HC3 + LC2 (antibody)
heavy: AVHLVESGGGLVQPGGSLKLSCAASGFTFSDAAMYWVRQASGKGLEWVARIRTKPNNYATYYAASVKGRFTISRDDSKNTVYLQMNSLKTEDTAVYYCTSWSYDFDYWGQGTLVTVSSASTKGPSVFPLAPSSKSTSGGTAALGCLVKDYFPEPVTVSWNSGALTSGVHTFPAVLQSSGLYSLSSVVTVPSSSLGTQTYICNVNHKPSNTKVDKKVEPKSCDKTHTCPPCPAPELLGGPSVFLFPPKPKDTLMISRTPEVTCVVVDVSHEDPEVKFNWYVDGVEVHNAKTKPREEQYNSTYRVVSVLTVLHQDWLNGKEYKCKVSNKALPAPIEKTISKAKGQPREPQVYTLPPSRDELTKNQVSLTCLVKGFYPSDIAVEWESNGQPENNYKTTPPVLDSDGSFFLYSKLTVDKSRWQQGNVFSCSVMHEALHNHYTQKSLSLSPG
light: B1 light with Q3V, G105Q, V109L
B11: Humanized HC2 + LC2 (antibody)
heavy: not shown
light: B1 light with Q3V, G105Q, V109L
B12: Humanized HC4 + LC2 (antibody)
heavy: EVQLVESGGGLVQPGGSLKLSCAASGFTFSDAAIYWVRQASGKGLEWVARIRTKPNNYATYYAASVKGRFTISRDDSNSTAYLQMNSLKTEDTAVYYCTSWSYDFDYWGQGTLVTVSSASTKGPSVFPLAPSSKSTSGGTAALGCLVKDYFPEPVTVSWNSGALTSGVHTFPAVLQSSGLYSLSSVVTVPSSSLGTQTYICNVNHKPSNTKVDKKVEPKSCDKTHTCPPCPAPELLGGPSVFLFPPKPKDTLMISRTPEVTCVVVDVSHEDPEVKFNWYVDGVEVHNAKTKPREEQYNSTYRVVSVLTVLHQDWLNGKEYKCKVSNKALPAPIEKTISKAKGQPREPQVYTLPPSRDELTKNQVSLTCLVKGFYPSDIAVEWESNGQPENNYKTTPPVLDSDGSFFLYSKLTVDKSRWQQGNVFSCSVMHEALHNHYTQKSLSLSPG
light: B1 light with Q3V, G105Q, V109L
B13: Humanized HC5 + LC1 (antibody, V domains shown)
VH: AVQLVESGGGLVQPGGSLKLSCAASGFTFSDAAMYWVRQASGKGLEWVARIRTKPNNYATYYAASVKGRFTISRDDSNSTAYLQMNSLKTEDTAVYYCTSWSYDFDYWGQGTLVTVSS
VL: DIVMTQSPLSLPVTPGEPASISCRSSKSLLHSSGKTYLNWYLQKPGQSPQLLIYWMSNRASGVPDRFSGSGSGTDFTLKISRVEAEDVGVYYCQQFLEYPLTFGQGTKLEIKR
B14: Humanized HC1 + LC1 (antibody, V domains shown)
VH: B13 VH with A1E, A49G, N78K, S79N
VL: B13 VL
B15: Humanized HC4 + LC1 (antibody, V domains shown)
VH: B13 VH with A1E, M34I
VL: B13 VL
B16: Humanized HC2 + LC1 (antibody)
heavy: not shown
light: B1 light with Q3V, T58N, G105Q, V109L
B17: Humanized HC3 + LC1 (antibody)
heavy: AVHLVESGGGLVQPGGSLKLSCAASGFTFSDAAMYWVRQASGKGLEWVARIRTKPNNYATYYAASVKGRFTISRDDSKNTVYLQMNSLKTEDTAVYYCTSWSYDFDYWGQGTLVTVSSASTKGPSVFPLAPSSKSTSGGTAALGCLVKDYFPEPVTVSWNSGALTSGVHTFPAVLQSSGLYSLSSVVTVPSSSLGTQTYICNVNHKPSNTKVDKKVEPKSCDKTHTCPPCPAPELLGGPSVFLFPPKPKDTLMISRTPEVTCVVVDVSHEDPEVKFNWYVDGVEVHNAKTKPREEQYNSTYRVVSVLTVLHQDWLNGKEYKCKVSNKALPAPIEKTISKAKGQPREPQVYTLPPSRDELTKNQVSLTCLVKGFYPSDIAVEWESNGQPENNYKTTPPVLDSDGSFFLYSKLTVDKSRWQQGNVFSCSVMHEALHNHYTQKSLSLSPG
light: B1 light with Q3V, T58N, G105Q, V109L
B18: Humanized HC1 + LC3 (antibody)
heavy: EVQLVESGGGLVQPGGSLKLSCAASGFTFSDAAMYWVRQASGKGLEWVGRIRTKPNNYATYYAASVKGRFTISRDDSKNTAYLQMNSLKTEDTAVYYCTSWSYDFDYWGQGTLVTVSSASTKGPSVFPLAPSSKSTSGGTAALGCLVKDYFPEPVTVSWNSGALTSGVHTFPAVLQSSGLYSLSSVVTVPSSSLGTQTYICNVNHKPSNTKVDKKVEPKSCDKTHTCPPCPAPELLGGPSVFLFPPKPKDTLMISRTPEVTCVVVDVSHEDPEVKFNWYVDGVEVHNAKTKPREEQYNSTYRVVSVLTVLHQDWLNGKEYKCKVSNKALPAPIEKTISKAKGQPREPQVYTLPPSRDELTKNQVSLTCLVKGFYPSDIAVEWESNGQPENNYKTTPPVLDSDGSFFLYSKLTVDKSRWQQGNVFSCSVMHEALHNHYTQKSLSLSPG
light: B1 light with Q3V
B19: Humanized HC2 + LC3 (antibody)
heavy: not shown
light: B1 light with Q3V
B20: Humanized HC5 + LC3 (antibody)
heavy: not shown
light: B1 light with Q3V
B21: Humanized HC4 + LC3 (antibody)
heavy: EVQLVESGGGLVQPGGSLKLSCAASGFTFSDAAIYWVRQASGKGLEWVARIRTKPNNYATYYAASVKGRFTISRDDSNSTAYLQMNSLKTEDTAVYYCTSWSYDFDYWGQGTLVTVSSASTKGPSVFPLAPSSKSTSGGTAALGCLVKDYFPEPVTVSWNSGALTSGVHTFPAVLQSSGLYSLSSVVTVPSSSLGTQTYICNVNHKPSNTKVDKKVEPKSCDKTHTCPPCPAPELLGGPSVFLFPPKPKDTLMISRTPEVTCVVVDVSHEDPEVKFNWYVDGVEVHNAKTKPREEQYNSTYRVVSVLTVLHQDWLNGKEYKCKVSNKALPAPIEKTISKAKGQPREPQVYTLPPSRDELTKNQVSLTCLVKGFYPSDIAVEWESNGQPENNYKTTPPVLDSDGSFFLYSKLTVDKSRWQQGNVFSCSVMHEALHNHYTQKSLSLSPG
light: B1 light with Q3V
B22: Humanized HC3 + LC3 (antibody)
heavy: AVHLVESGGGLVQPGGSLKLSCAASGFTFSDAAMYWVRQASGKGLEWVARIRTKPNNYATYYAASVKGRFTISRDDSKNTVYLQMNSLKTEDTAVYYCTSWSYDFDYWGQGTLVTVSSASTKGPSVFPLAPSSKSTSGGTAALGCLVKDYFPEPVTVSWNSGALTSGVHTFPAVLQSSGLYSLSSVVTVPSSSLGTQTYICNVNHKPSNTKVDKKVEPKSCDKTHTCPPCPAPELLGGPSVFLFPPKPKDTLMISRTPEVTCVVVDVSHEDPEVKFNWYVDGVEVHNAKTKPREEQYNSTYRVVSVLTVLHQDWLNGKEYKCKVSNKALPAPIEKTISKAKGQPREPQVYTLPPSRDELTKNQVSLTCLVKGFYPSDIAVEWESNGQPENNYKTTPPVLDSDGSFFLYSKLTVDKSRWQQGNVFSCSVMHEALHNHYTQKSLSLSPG
light: B1 light with Q3V

Target: T1, human pro-EMAPII
Assay: ELISA

Row | Binder | EC50 [µg/mL]
1 | B1 | 0.113
2 | B2 | 0.078
3 | B3 | 0.197
4 | B4 | 0.07
5 | B5 | 0.166
6 | B6 | 3.39
7 | B7 | 0.329

Target: T1, human pro-EMAPII
Assay: ELISA
Remark: another data set of the same source

Row | Binder | EC50 [µg/mL]
8 | B8 | 0.17
9 | B9 | 0.089
10 | B10 | 0.081
11 | B11 | 0.112
12 | B12 | 0.271
13 | B6 | 3.6
14 | B7 | 0.361

Target: T1, human pro-EMAPII
Assay: ELISA
Remark: another data set of the same source

Row | Binder | EC50 [µg/mL]
15 | B13 | 0.163
16 | B14 | 0.098
17 | B15 | 0.198
18 | B16 | 0.076
19 | B17 | 0.082
20 | B6 | 3.6
21 | B7 | 0.361

Target: T1, human pro-EMAPII
Assay: ELISA
Remark: another data set of the same source

Row | Binder | EC50 [µg/mL]
22 | B18 | 0.108
23 | B19 | 0.075
24 | B20 | 0.2
25 | B21 | 0.229
26 | B22 | 0.077
27 | B6 | 3.39
28 | B7 | 0.329
